# Experimental data reported in paper PMC4646322 (The Journal of Biological Chemistry, 2015).
# Tests used:
# [1] = target: the molecule itself; experiment: SEC-MALS; SEC-MALLS, Superdex75 10/300, 50 mM Tris pH 7.5, 150 mM NaCl; samples loaded at 20, 200 or 500 μM
# [2] = target: the molecule itself; experiment: AUC; sedimentation equilibrium, 20 and 200 μM TolR(36–142), 15,000-35,000 rpm, 20 h at each speed, 50 mM Tris pH 7.5, 150 mM NaCl, 20 °C, interference optics; self-association model
Protein,binding result [1],stoichiometry N [2]
"E. coli TolR(60–133), truncated TolR (domain or fragment, Escherichia coli K12, three residues left at the N terminus after cleavage by tobacco etch virus protease; TolR, Escherichia coli K12, residues 60-133 (N- and C-terminal strand-swapped regions deleted); expected mass 8314.6 Da; Dimer that dissociates already at 200 μM; also called TolR24; source: E. coli BL21 DE3, purified (HisTrap, TEV cleavage, Superdex75); not shown: His6, N-terminal, cleaved) GAMDNPPVIVEVSGIGQYTVVVEKDRLERLPPEQVVAEVSSRFKANPKTVFLIGGAKDVPYDEIIKALNLLHSAGVK",binds,–
"E. coli TolR(64–142) (domain or fragment, Escherichia coli K12, three residues left at the N terminus after cleavage by tobacco etch virus protease; expected mass 8818.3 Da; Dimer that dissociates on dilution; source: E. coli BL21 DE3, purified (HisTrap, TEV cleavage, Superdex75); not shown: His6, N-terminal, cleaved) GAMVIVEVSGIGQYTVVVEKDRLERLPPEQVVAEVSSRFKANPKTVFLIGGAKDVPYDEIIKALNLLHSAGVKSVGLMTQPI",binds,–
"E. coli TolR(36–142), intact periplasmic domain of TolR (domain or fragment, Escherichia coli K12, three residues left at the N terminus after cleavage by tobacco etch virus protease; expected mass of the monomer 11,695.4 Da; Vector pETM-11; also called TolR21; source: E. coli BL21 DE3, purified (HisTrap, TEV cleavage, Superdex75); not shown: His6, N-terminal, cleaved) GAMAPIITQSVEVDLPDATESQAVSSNDNPPVIVEVSGIGQYTVVVEKDRLERLPPEQVVAEVSSRFKANPKTVFLIGGAKDVPYDEIIKALNLLHSAGVKSVGLMTQPI",–,2
"E. coli TolR(36–133) (domain or fragment, Escherichia coli K12, three residues left at the N terminus after cleavage by tobacco etch virus protease; TolR, Escherichia coli K12, residues 36-133 (9 C-terminal residues deleted); expected mass 10,768.2 Da; Dimer that dissociates on dilution; essentially monomeric at low micromolar concentrations; source: E. coli BL21 DE3, purified (HisTrap, TEV cleavage, Superdex75); not shown: His6, N-terminal, cleaved) GAMAPIITQSVEVDLPDATESQAVSSNDNPPVIVEVSGIGQYTVVVEKDRLERLPPEQVVAEVSSRFKANPKTVFLIGGAKDVPYDEIIKALNLLHSAGVK",binds,–
